# Results as given in the nanobody polyreactivity screen of Harvey et al. (2022).
# Test: yeast display, Sf9 membrane polyspecificity reagent, FACS + sequencing; frameworks hold sequencing errors
# Summary of the method: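 Sorting gates, low and high (top ~1%), were placed on anti-HA fluorescence to track expression and on streptavidin fluorescence to track reagent binding. A clone's polyreactivity label is taken from the gate it came out of. The reagent was 10% biotinylated, detergent-solubilized Sf9 membrane, applied for 1 hour at 4 °C to galactose-induced yeast display cells.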
row,Sequence,polyreactivity (PSR sort gate)
1,QVQLVESGGGLVQAGGSLRLSCAASGSIFDAYAMGWYRQAPGKERELVAAITTGGGSTYYADSVMGRFTISRDNAKNTVYLQMNSLKPEDTAVYYCARDYGKYKGYYWGQGTQVTVSS,low polyreactivity
2,QVQLVESGGGLVQAGGSLRLSCAASGSIFDDYAMGWYRQAPGKERELVAAISSSGTSTYYADSVKGRFTISRDNAKNTVYLQMNSLKQEDTAVYYCAARSAILKSGYLMDYWGQGTQVTVSS,low polyreactivity
3,QVQLVESGGGLVQAGGSLRLSCAASGSIFDDYAMGWYRQAPGKERELVAAISWSGGRTYYADSVKGRFTISRDNAKNTVYLQMNSLKPEDTAVYYCAATTGVRSRRYYYWGQGTQVTVSS,low polyreactivity
4,QVQLVESGGGLVQAGGSLRLSCAASGSIFDFNAMGWYRQAPGKERELVATIRYSGGSTYYADSVKGRFTISRDNAKNTVYLQMNSLKPEDTAVYYCIFRSPSYEYDYWGQGTQVTVSS,low polyreactivity
5,QVQLVESGGGLVQAGGSLRLSCAASGSIFDFNTMGWYIQAPGKERELVAAISQRTGRTYYADSVKGRFTISRDKAKNTVYLQMNSLKPEDTAVYYCAKVAVAGRGSGNYINHRFEYWGQGTQVTVSS,high polyreactivity
6,QVQLVESGGGLVQAGGSLRLSCAASGSIFDGYAMGWYRQAPGTERELVAGISGRGTRTYYADSVKGRFTISRDYAMNTVYLQMNSLKPEDTAVYYCNKAGYFHRLKYYYWGQGTQVTVSS,high polyreactivity
7,QVQLVESGGGLVQAGGSLRLSCAASGSIFDIYAMGWYRQAPGKERELVADITISGGSTYYADSVKGRFTISRDNAKNTVYLQMNSLKPEDTAVYYCAADVTVVLGYKYDYWGQGTQVTVSS,low polyreactivity
8,QVQLVESGGGLVQAGGSLRLSCAASGSIFDIYGMGWYRQAPGKERELVASISRGAGSTNYADSVKGRFTISRDNAKNTVYLQMNSLKPEDTAVYYCAAEVYVPDYFQHKFDVEYEYWGQGTQVTVSS,low polyreactivity
9,QVQLVESGGGLVQAGGSLRLSCAASGSIFDKNAMGWYRQAPGKERELVAAIRRTSTTYYADSVKGRFTISRDNAKKTVYLQMNSLKPEDTAVYYCAATYGSGYWYPRYYYWGQGTQVTVSS,high polyreactivity
10,QVQLVESGGGLVQAGGSLRLSCAASGSIFDLIAMGWYRQAPGKERELVAAISSGGGTYYADSVKGRFTISRDNAKNTVYLQMNSLKPEDTAVYYCNRVTRWTYNYWGQGTQVTVSS,high polyreactivity
11,QVQLVESGGGLVQAGGSLRLSCAASGSIFDLYAMGWYRQAPGKERELVAAINSGGSTYADSVKGRFTISRDNSKNTVYLQMNSLKPEDTAVYYCNADYRHSLGSGYDYWGQVTQVTVSS,low polyreactivity
12,QVQLVESGGGLVQAGGSLRLSCAASGSIFDLYAMGWYRQAPGKERELVDAISSGATTNYADSVKGRFTISRDNAKNTVYLQMNSLKPEDTAVYYCAKYYRISSLYVIVSAYDYWGQGTQVTVSS,low polyreactivity
13,QVQLVESGGGLVQAGGSLRLSCAASGSIFDNYAMGWYRQAPGKEREFVAGISWSGGSTRYADSVKGRFTISRDNAKNTVYLQMNSLKPEDTAVYYCNTGYGLVDFLYGYYYWGQGTQVTVSS,low polyreactivity
14,QVQLVESGGGLVQAGGSLRLSCAASGSIFDPNAMGWYRQAPGKERELLADIDSSDGSTYYADSVKGRFTISRDNAKNTVYLQMNSLKPEDTAVYYCNARYGGWVWSTYDHWGQGTQVTVSS,low polyreactivity
15,QVQLVESGGGLVQAGGSLRLSCAASGSIFDPNAMGWYRQAPGKERELVANITNGGRTNYADSVKGRFTISRDNAKNTVYLQMNSLKPEDTAVYYCAKDSPFTSVTVLAPIIYDSWGQGTQVTVSS,low polyreactivity
16,QVQLVESGGGLVQAGGSLRLSCAASGSIFDPYAMGWSRQAPGKEREFVAAISYSAGSTYYADSVKGRFTISRDNAKNTVYLQMNSLKPEATAVYYCAARYTHTSPSIRSWAYYYWGQGTQVTVSS,high polyreactivity

row,Sequence,polyreactivity (PSR sort gate)
1,QVQLVESGGGLVQAGGSLRLSCAASGSIFDPYAMGWYRQAPGKERELVAGISFSGGRTYYADSVKGRFTISRDNAKNTVYLQMNSLKPEDTAVYYCNKLLTQGAYPYYFWGQGTQVTVSS,high polyreactivity
2,QVQLVESGGGLVQAGGSLRLSCAASGSIFDPYAMGWYRQAPGKERELVAVINDGGRTTYADSVKGRFTISRDNAKNTVYLQMNSLKPEDTAVYYCAATYYFSRWDLFGYWGQGTQVTVSS,low polyreactivity
3,QVQLVESGGGLVQAGGSLRLSCAASGSIFDRNAMGWYRQAPGKERELVAAITSGGSTYYADSVKGRFTISRDNAKNTVYLQMNSLKAEDTAVYYCNADADPPVPLYYWGQGTQVTVSS,low polyreactivity
4,QVQLVESGGGLVQAGGSLRLSCAASGSIFDRNAMGWYRQAPGKERELVAAITSGGSTYYADSVKGRFTISRDNAKNTVYLQMNSLKPEDTGVYYCNADADPPVPLYYWGQGTQVTVSS,low polyreactivity
5,QVQLVESGGGLVQAGGSLRLSCAASGSIFDRNAMGWYRQAPGKERELVATITWSGVSTYYADSVKGRFTISRDNAKNTVYLQMNSLKPEDTAVYYCNADYSYRHWYDPGQYGQAMGYWGLGTQVTVSS,low polyreactivity
6,QVQLVESGGGLVQAGGSLRLSCAASGSIFDRYALGWYRQAPGKERELVAAISTGGSTNYADSVKGRFTISRDNAKNTVYLQMNSLKPEDTAVYYCAAERYWVFHGTISYKYDYWGQGSQVTVSS,low polyreactivity
7,QVQLVESGGGLVQAGGSLRLSCAASGSIFDSYVMGCYRQAPGTERELVAAITYSGGSTYADSVKGRFTISRDNAKNTVYLQMNSLKPEDTAVYYCAADYYRGRYSYRYDYWGQGTQVTVSS,low polyreactivity
8,QVQLVESGGGLVQAGGSLRLSCAASGSIFDSYVMGWYRQAPGKERELVAAITYSGGSTYADSVKGRFTISRDNAKNTVYLQMNSLKPEDTAVYYCAAASYFYLYLLEDYWGQGTQVTVSS,low polyreactivity
9,QVQLVESGGGLVQAGGSLRLSCAASGSIFDVNAMGWYRQAPGKERELVAAISDSGGSTYYADSVKGRFTISRDNAKNTVYLQMNSLKPEDTAVYYCNADWYWYNYYDFDYWGQGTQVTVSS,low polyreactivity
10,QVQLVESGGGLVQAGGSLRLSCAASGSIFDVNAMGWYRQAPGKERELVAAISDSGGSTYYADSVKGRYTISRDNAKNTVYLQMNSLKPEDTAVYYCNADWSWYNYYDFDYWGQGTQVTVSS,low polyreactivity
11,QVQLVESGGGLVQAGGSLRLSCAASGSIFDVNAMGWYRQAPGKERELVAAISDSTTSTYYADSVKGRFTISRDNAKNTVYLQMNSLKPEDTAVYYCNTPGLPIDSEYDYWGQGTQVTVSS,low polyreactivity
12,QVQLVESGGGLVQAGGSLRLSCAASGSIFDVNAMGWYRQAPGKERELVAAISQRGTRTYYADSVKGRFTISRDNAKNTVYLQMNSLKAEDTAVYYCNRGGWRQYDSWGQGTQVTVSS,high polyreactivity
13,QVQLVESGGGLVQAGGSLRLSCAASGSIFDVNPMGWYRQAPGKERELVAAISQRGTRTYYADSVKGRFTISRDNAKNTVYLQMNSLKPEDTAVYSCNRGGWRQYDSWGQGTQVTVSS,high polyreactivity
14,QVQLVESGGGLVQAGGSLRLSCAASGSIFDVNTMGWYRQAPGKERELVAAISRGGSTNYADSVKGRFTISRDNAKNTVYLQMNSLKPEDTAVYYCNKRYQNQYDYWGQGTQVTVSS,low polyreactivity
15,QVQLVESGGGLVQAGGSLRLSCAASGSIFDVNTMGWYRQAPGKERELVAAITNGDRTNYADSVKGRFTISRDNAKNTVYLQMNSLKPEDTAVYYCNTDQGTTSDYGYWGQGTQVTVSS,low polyreactivity
16,QVQLVESGGGLVQAGGSLRLSCAASGSIFDVYAMGWYRQAPGKERELVAAITFSGGSTYYADSVKWRFTISRDNAKNTVYLQMNSLNPEDTAVYYCSVSRSYLYPVYGYYTWLGDYWGQGTQVTVSS,low polyreactivity
